Consider 8 compounds from US20230381112A1, “Compositions and Methods of Manufacturing Amphiphilic Block Copolymers that Form Nanoparticles in Situ” (Vaccuitech North America, Inc., priority 2020, published 2023).

Entries after “also recorded” stand apart in the source; their conditions may differ. No end group written: not given here.

Data set [1] relates to human monocyte cells (THP1). The settings on record: 100 μM.
Protocol: The cellular viability of retinal pigmented epithelial like cells (ARPE19) and monocyte like cells (THP1) were assessed following exposure to thermo-responsive polymer at physiologically relevant concentrations.
THP1 cells were grown in vitro in cell growth medium and exposed to thermo-responsive polymer micelle that was resuspended in cell growth medium at the concentrations specified up to 20 mg/mL. […] Cell viability was assessed using Promega CellTiter 96® Non-Radioactive Cell Proliferation Assay (MTT).
The subject of a further data set is NF-κB. The data set is described as follows: Innate immune stimulation: NF-κB activation in THP1 NF-κB SEAP reporter monocytes. It counts as cell-based, human. The note with it: polymer up to 20 mg/mL in culture medium.
Data set [2] in a line: Concentration-dependent hydrodynamic behavior by DLS in PBS (0.8 to 200 mg/mL, 20-37° C.). The note with it: result in words; 5 mg/mL vs 200 mg/mL in PBS.
Protocol: Unless otherwise indicated, the hydrodynamic diameter (DH), also referred to as simply the diameter or as the number average diameter or number mean diameter, of the polymers and copolymers were measured using dynamic light scattering (DLS) at a scattering angle θ=90° using a Zetasizer Ultra (Malvern Panalytical, Malvern, England) equipped with a 633 nm laser, capillary cell (ZSU1002) and ZS Xplorer software. […] For measurements presented, number mean diameter was used for assessment. […] For transition temperature (Ttr) characterization, DLS measurements were performed for temperature sweeps over a maximum range of 4-50° C. at a concentration of 0.5 mg/mL, 5 mg/mL or 200 mg/mL in PBS (150 mM NaCl, pH 7.4). At each step, measurements were performed after reaching steady-state temperature conditions. Characterization of the polymer chain conformational changes was evaluated from the temperature dependence of the hydrodynamic diameter (DH); the Ttr value was determined from the intersection point of two lines formed by the linear regression of a lower horizontal asymptote and a vertical section of the S-shaped curve (sigmoidal curve) fit.
The nature of data set [3]: DLS temperature sweep in PBS: hydrodynamic diameter (DH), transition temperature (Ttr), solubility/aggregation. It is filed as physicochemical. The settings on record: for Ttr: drug conjugate polymers; for Ttr / DH^20° C. / DH^37° C.: PBS at 0.5 mg/mL; for DH^20° C.: hydrodynamic diameter at 20° C.; for DH^37° C.: hydrodynamic diameter at 37° C. The source says:
Temperature-responsive: Refers to changes in properties of a material with changes in temperature. A material may be described as temperature-responsive if the properties of the material change with respect to changes in temperature. Temperature-responsive polymers are polymers that experience a change in physical properties in response to temperature, such as a change in solubility with changes temperature, which may be described by a lower critical solution temperature (LCST) or upper critical solution temperature (UCST). Preferred embodiments of the temperature-responsive polymers described herein have reduced solubility at elevated temperatures, which may be described by an LCST or transition temperature (Ttr), if the LCST is unknown. Transitions temperatures described herein are experimentally determined by dynamic light scattering or by turbidity, wherein particle size (or light scattering intensity) or absorbance are plotted against temperature to produce a sigmoidal curve. The transition temperature as used herein is the temperature (value on the x-axis) at which the y-value is 50% the maximum value of the sigmoidal curve. Temperature-responsive monomers are monomers that form temperature-responsive polymers. […] Note: temperature-responsive monomers are defined herein as a type of hydrophobic monomer that is hydrophobic at certain temperatures.
Hydrodynamic behavior, thermo-responsiveness, and solubility under aqueous conditions. Prepared polymers and control materials were characterized for nanoparticle hydrodynamic diameter by dynamic light scattering (DLS), thermo-responsivity and overall solubility in PBS.

The conditions of data set [4]: polymers of temperature-responsive monomers; cited from earlier work.
For data set [5] the following is noted: intravitreal injection; cited from earlier work.

Consider `CCCCc1nc2c(N)nc3ccccc3c2n1CCCCN` [Compound 34, 1-(4-aminobutyl)-2-butyl-1H-imidazo[4,5-c]quinolin-4-amine], for which the “viability of THP1 cells” value in data set [1] is recorded as 10-20%. Moreover, the NF-κB activation result in the data set with NF-κB is “strong NF-κB response”.
On to “CN-p[(NIPMAM)f1-co-(BnMAM)f2]-b-p(HPMA)a-PEG4-Ova [Compound 291]”, for which the concentration-responsive micellization result in data set [2] is given as “retain concentration responsive micellization properties; also recorded: similarly demonstrated”. For the same compound, in data set [3], the Ttr worked out at 28 °C, the “DH^20° C.” value is 7.4 nm and the “DH^37° C.” value stood at 40.4 nm. The “thermo-responsive and micelle-forming behavior” value in data set [3] (result in words, DLS in PBS) was “retains temperature responsiveness”.
For the compound “CN-p[(NIPMAM)f1-co-(BnMAM)f2]-b-p(HPMA)a-PEG4-Ova [Compound 292]”, in data set [3], the Ttr came out at 32 °C, the “DH^20° C.” value is given as 6.1 nm and the “DH^37° C.” value was 36.5 nm.
Taken in the same sequence, the figures for “CN-p[(NIPMAM)f1-co-(BnMAM)f2]-b-p(HPMA)a-PEG4-Ova [Compound 293]” were 29 °C, 5.7 nm and 41.1 nm.
On the same counts, the results for “CN-p[(NIPMAM)f1-co-(BnMAM)f2]-b-p(HPMA)a-pip-diABZI [Compound 290]” are 31 °C, 15.3 nm and 25.3 nm.
Turning to “P(Val-Pro-Gly-Val-Gly)(SEQ ID NO: 3) (VPGVG; also: polymer of peptide-derived monomer)”, the “LCST or Ttr” value in data set [4] was 27 °C.
Turning to “Ranibizumab: Fab molecule used for intravitreal injections”, in data set [5], the vitreal half-life is 76.8 h.
With “Val-Pro-Gly-Val-Gly (SEQ ID NO: 3) derived polymethacrylate: polymethacrylate derived from the pentapeptide, Class IV of Table 1 (VPGVG; also: polymethacrylate backbone with pendant peptide)”, the “LCST or Ttr” value in data set [4] is 15-55 °C.
